# From patent US20220307010A1 (TWIST BIOSCIENCE, published 2022)
# Molecular target: T1, TIGIT (T cell immunoreceptor with Ig and ITIM domains) (human, UniProt Q495A1 22-141, limits assumed)
# T1 construct: also called hTIGIT; human TIGIT
# T1 sequence (looked up): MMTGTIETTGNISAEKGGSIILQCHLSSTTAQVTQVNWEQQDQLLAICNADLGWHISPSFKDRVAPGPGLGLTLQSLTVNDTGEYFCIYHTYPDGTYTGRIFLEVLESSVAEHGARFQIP
# Assay: ELISA
row,Binder,ELISA
1,"TIGIT-211-15 (antibody, V domains shown) VH: EVQLLESGGGLVQPGGSLRLSCAASGFTFSSAAMSWVRQAPGKGLEWVSGISPSGGITTYADSVKGRFTISRDNSKNTLYLQMNSLRAEDTAVYYCASLSRGYWGQGTLVTVSS VL: DIQMTQSPSSLSASVGDRVTITCQSSQSVYSNNELSWYQQKPGKAPKLLIYGTSYRYSGVPSRFSGSGSGTDFTLTISSLQPEDFATYYCSSWAGSRSGTVFGQGTKVEIK",11.3
2,"TIGIT-211-13 (antibody, V domains shown) VH: EVQLLESGGGLVQPGGSLRLSCAASGFTFNKYPMMWVRQAPGKGLEWVSYISSSGSSTYYADSVKGRFTISRDNSKNTLYLQMNSLRAEDTAVYYCARVIAAAGAFDYWGQGTLVTVSS VL: DIQMTQSPSSLSASVGDRVTITCRASQSIREYLHWYQQKPGKAPKLLIYFGSELRKGVPSRFSGSGSGTDFTLTISSLQPEDFATYYCGQGVLWPATFGQGTKVEIK",15

# Molecular target: T1, TIGIT (T cell immunoreceptor with Ig …)
# Assay: SPR kinetics
Binder,Kd [nM],koff [s⁻¹],kon [M⁻¹ s⁻¹]
"TIGIT-211-77 (antibody, V domains shown) VH: EVQLLESGGGLVQPGGSLRLSCAASGFTFGNYAMAWVRQAPGKGLEWVSSIWPSGGQTWYADSVKGRFTISRDNSKNTLYLQMNSLRAEDTAVYYCAKGGTSFDYWGQGTLVTVSS VL: DIQMTQSPSSLSASVGDRVTITCRASQSVRSYLNWYQQKPGKAPKLLIYAASSLYSGVPSRFSGSGSGTDFTLTISSLQPEDFATYYCQQYASVPVTFGQGTKVEIK",683,0.0417,61000
"TIGIT-211-98 (antibody, V domains shown) VH: EVQLLESGGGLVQPGGSLRLSCAASGFTFETYAMSWVRQAPGKGLEWVSVISGSGGRPNYADSVKGRFTISRDNSKNTLYLQMNSLRAEDTAVYYCAREGLWAFDYWGQGTLVTVSS VL: DIQMTQSPSSLSASVGDRVTITCRASHFIGSLLSWYQQKPGKAPKLLIYETSKLASGVPSRFSGSGSGTDFTLTISSLQPEDFATYYCQQSYSYPRTFGQGTKVEIK",574000,0.098,171
"TIGIT-211-116 (antibody, V domains shown) VH: EVQLLESGGGLVQPGGSLRLSCAASGFTFSRYFMGWVRQAPGKGLEWVSAISGSGGNTYYADSVKGRFTISRDNSKNTLYLQMNSLRAEDTAVYYCARVWRNHLDYWGQGTLVTVSS VL: DIQMTQSPSSLSASVGDRVTITCRASQTIERRLNWYQQKPGKAPKLLIYHDNKRPSGVPSRFSGSGSGTDFTLTISSLQPEDFATYYCQQGYTLPWTFGQGTKVEIK",269000,0.105,389
"TIGIT-211-93 (antibody, V domains shown) VH: EVQLLESGGGLVQPGGSLRLSCAASGFTFSRYFMGWVRQAPGKGLEWVSEISPSGKKKYYADSVKGRFTISRDNSKNTLYLQMNSLRAEDTAVYYCAKSSFDKYNFDYWGQGTLVTVSS VL: DIQMTQSPSSLSASVGDRVTITCSASQDINKYLNWYQQKPGKAPKLLIYHTSRLQSGVPSRFSGSGSGTDFTLTISSLQPEDFATYYCQQFAYFPATFGQGTKVEIK",1240,0.0281,22700
"TIGIT-211-15 (antibody, V domains shown) VH: EVQLLESGGGLVQPGGSLRLSCAASGFTFSSAAMSWVRQAPGKGLEWVSGISPSGGITTYADSVKGRFTISRDNSKNTLYLQMNSLRAEDTAVYYCASLSRGYWGQGTLVTVSS VL: DIQMTQSPSSLSASVGDRVTITCQSSQSVYSNNELSWYQQKPGKAPKLLIYGTSYRYSGVPSRFSGSGSGTDFTLTISSLQPEDFATYYCSSWAGSRSGTVFGQGTKVEIK",301,0.00712,23600
"TIGIT-211-13 (antibody, V domains shown) VH: EVQLLESGGGLVQPGGSLRLSCAASGFTFNKYPMMWVRQAPGKGLEWVSYISSSGSSTYYADSVKGRFTISRDNSKNTLYLQMNSLRAEDTAVYYCARVIAAAGAFDYWGQGTLVTVSS VL: DIQMTQSPSSLSASVGDRVTITCRASQSIREYLHWYQQKPGKAPKLLIYFGSELRKGVPSRFSGSGSGTDFTLTISSLQPEDFATYYCGQGVLWPATFGQGTKVEIK",221,0.326,1.48e+06
"TIGIT-211-95 (antibody, V domains shown) VH: EVQLLESGGGLVQPGGSLRLSCAASGFTFPKYGMAWVRQAPGKGLEWVSTISSGGGYTYYPDSVKGRFTISRDNSKNTLYLQMNSLRAEDTAVYYCARDTYLHFDYWGQGTLVTVSS VL: DIQMTQSPSSLSASVGDRVTITCRASQGVRTSLAWYQQKPGKAPKLLIYAKNNRPSGVPSRFSGSGSGTDFTLTISSLQPEDFATYYCQQSYSAPYTFGQGTKVEIK",355,0.0756,213000

# Molecular target: T2, TIGIT (T cell immunoreceptor with Ig and ITIM domains) (human, UniProt Q495A1 22-141, limits assumed)
# T2 construct: also called hTIGIT; human TIGIT
# T2 sequence (looked up): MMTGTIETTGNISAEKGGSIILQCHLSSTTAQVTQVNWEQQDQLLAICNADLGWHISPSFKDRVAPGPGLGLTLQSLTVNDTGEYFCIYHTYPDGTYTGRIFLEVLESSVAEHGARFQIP
# Assay: SPR, VHH-V5-His
Binder,Kd [nM],koff [s⁻¹],kon [M⁻¹ s⁻¹]
"TIGIT-30-30 VHH-V5-His (VHH, not shown: V5-His tag) VHH: EVQLVESGGGLVQAGGSLRLSCAASGGTFSGRGMGWFRQAPGKEREWVSSVYIFGGSTYYADSVKGRFTISADNAKNTVYLQMNSLKPEDTAVYYCANSNKPKFDWGQGTQVTVSS",387,0.006,10000
"TIGIT-30-49 VHH-V5-His (VHH, not shown: V5-His tag) VHH: EVQLVESGGGLVQAGGSLRLSCAASGNIFSRYIMGWFRQAPGKEREWVAGISNGGTTKYADSVKGRFTISADNAKNTVYLQMNSLKPEDTAVYYCAQGWKIVPTNWGQGTQVTVSS",–,0.08,90000
"TIGIT-30-15 VHH-V5-His (VHH, not shown: V5-His tag) VHH: EVQLVESGGGLVQAGGSLRLSCAASGFTFSGNWMGWFRQAPGKEREWVSGISSGGGRTYYADSVKGRFTISADNAKNTVYLQMNSLKPEDTAVYYCAADVWYGSTWRNWGQGTQVTVSS",–,0.004,20000
"TIGIT-30-43 VHH-V5-His (VHH, not shown: V5-His tag) VHH: EVQLVESGGGLVQAGGSLRLSCAASGFTFSTSWMGWFRQAPGKERELVAARNSGGNTNYADSVKGRFTISADNAKNTVYLQMNSLKPEDTAVYYCAADVWYGSTWRNWGQGTQVTVSS",–,0.008,70000
"TIGIT-30-40 VHH-V5-His (VHH, not shown: V5-His tag) VHH: EVQLVESGGGLVQAGGSLRLSCAASGFTFSGNWMGWFRQAPGKEREWVVGISSGGSTHYADSVKGRFTISADNAKNTVYLQMNSLKPEDTAVYYCAADVWYGSTWRNWGQGTQVTVSS",–,0.006,30000
"TIGIT-30-01 VHH-V5-His (VHH, not shown: V5-His tag) VHH: EVQLVESGGGLVQAGGSLRLSCAASGFAFSSYWMGWFRQAPGKERELVAARNSGGNTNYADSVKGRFTISADNAKNTVYLQMNSLKPEDTAVYYCAADVWYGSTWRNWGQGTQVTVSS",–,0.08,10000
"TIGIT-29-06 VHH-V5-His (VHH, not shown: V5-His tag) VHH: EVQLVESGGGLVQAGGSLRLSCAASGGTFRSYVMGWFRQAPGKEREWVATINSSGSRTYYADSVKGRFTISADNAKNTVYLQMNSLKPEDTAVYYCAARPNYRDYEYWGQGTQVTVSS",433000,0.02,–
"TIGIT-29-10 VHH-V5-His (VHH, not shown: V5-His tag) VHH: EVQLVESGGGLVQAGGSLRLSCAASGRTFSNYGMGWFRQAPGKEREFVSGISGSGGRTSYADSVKGRFTISADNAKNTVYLQMNSLKPEDTAVYYCAANLWYPVDRLNTGFNYWGQGTQVTVSS",–,0.003,10000
"TIGIT-29-01 VHH-V5-His (VHH, not shown: V5-His tag) VHH: EVQLVESGGGLVQAGGSLRLSCAASGRTFSNYAMGWFRQAPGKEREFVAAITWSGTRTDYADSVKGRFTISADNAKNTVYLQMNSLKPEDTAVYYCAAAAWTIYEYDYWGQGTQVTVSS",–,0.01,30000
"TIGIT-29-30 VHH-V5-His (VHH, not shown: V5-His tag) VHH: EVQLVESGGGLVQAGGSLRLSCAASGFTFSSYAMGWFRQAPGKEREFVAAITWSGTRTDYADSVKGRFTISADNAKNTVYLQMNSLKPEDTAVYYCAAAAWRYSEYDYWGQGTQVTVSS",–,0.08,300000
"TIGIT-29-07 VHH-V5-His (VHH, not shown: V5-His tag) VHH: EVQLVESGGGLVQAGGSLRLSCAASGSIFSNYAMGWFRQAPGKEREFVATISRGGTRTNYADSVKGRFTISADNAKNTVYLQMNSLKPEDTAVYYCAAAAWTIYAYNYWGQGTQVTVSS",–,0.004,8000
"TIGIT-29-12 VHH-V5-His (VHH, not shown: V5-His tag) VHH: EVQLVESGGGLVQAGGSLRLSCAASGSTFSSYAMGWFRQAPGKEREFVAAITWSGTRTNYADSVKGRFTISADNAKNTVYLQMNSLKPEDTAVYYCAAAAWTIYTYDSWGQGTQVTVSS",–,0.1,10000
"TIGIT-29-33 VHH-V5-His (VHH, not shown: V5-His tag) VHH: EVQLVESGGGLVQAGGSLRLSCAASGFIFSTYAMGWFRQAPGKERELVSAITRSGITTYYADSVKGRFTISADNAKNTVYLQMNSLKPEDTAVYYCAAAAWTIYEYDYWGQGTQVTVSS",1520,0.04,20000
"TIGIT-30-20 VHH-V5-His (VHH, not shown: V5-His tag) VHH: EVQLVESGGGLVQAGGSLRLSCAASGPTFSIYDMGWFRQAPGKEREFVAVINWSRGSTFYADSVKGRFTISADNAKNTVYLQMNSLKPEDTAVYYCAAGVWSSLRHTAANWGQGTQVTVSS",–,0.002,10000
"TIGIT-30-52 VHH-V5-His (VHH, not shown: V5-His tag) VHH: EVQLVESGGGLVQAGGSLRLSCAASGRTFSNYFMGWFRQAPGKERESVATVTWRDNITYYADSVKGRFTISADNAKNTVYLQMNSLKPEDTAVYYCASAGRWGQGTQVTVSS",4240,0.1,30000
"TIGIT-29-18 VHH-V5-His (VHH, not shown: V5-His tag) VHH: EVQLVESGGGLVQAGGSLRLSCAASGSTFSNYAMGWFRQAPGKEREFVSAINSSGSRTYYADSVKGRFTISADNAKNTVYLQMNSLKPEDTAVYYCAARLWGTWTAGDYDYWGQGTQVTVSS",–,0.007,20000
"TIGIT-29-34 VHH-V5-His (VHH, not shown: V5-His tag) VHH: EVQLVESGGGLVQAGGSLRLSCAASGFTFRNYAMGWFRQAPGKEREFVSSISSSSSRTSYADSVKGRFTISADNAKNTVYLQMNSLKPEDTAVYYCAARLWGTWTAGDYDYWGQGTQVTVSS",–,0.03,30000
"TIGIT-29-22 VHH-V5-His (VHH, not shown: V5-His tag) VHH: EVQLVESGGGLVQAGGSLRLSCAASGSILSSYTMGWFRQAPGKEREFVSTISRSSTRTYYADSVKGRFTISADNAKNTVYLQMNSLKPEDTAVYYCAARLWGTWTAGDYDYWGQGTQVTVSS",–,0.003,6000
